The data set concerns the molecule itself. Nature of the data set: cryo-EM structure; single-particle cryo-EM of detergent-solubilised prestin (extracted in digitonin, purified in GDN), about 2 mg/ml, 10 mM HEPES, 200 mM NaCl, 0.02% GDN, pH 7.4; C2 symmetry imposed; 3.6 Å.

B1: full-length prestin from gerbil (Meriones unguiculatus) tagged at its C terminus with enhanced yellow fluorescent protein (EYFP) (natural protein, UniProt Q9JKQ2 1-744, looked up)
chain: MDHAEENEIPVATQKYHVERPIFSHPVLQERLHVKDKVSESIGDKLKQAFTCTPKKIRNIIYMFLPITKWLPAYKFKEYVLGDLVSGISTGVLQLPQGLAFAMLAAVPPVFGLYSSFYPVIMYCFFGTSRHISIGPFAVISLMIGGVAVRLVPDDIVIPGGVNATNGTEARDALRVKVAMSVTLLSGIIQFCLGVCRFGFVAIYLTEPLVRGFTTAAAVHVFTSMLKYLFGVKTKRYSGIFSVVYSTVAVLQNVKNLNVCSLGVGLMVFGLLLGGKEFNERFKEKLPAPIPLEFFAVVMGTGISAGFNLHESYSVDVVGTLPLGLLPPANPDTSLFHLVYVDAIAIAIVGFSVTISMAKTLANKHGYQVDGNQELIALGICNSIGSLFQTFSISCSLSRSLVQEGTGGKTQLAGCLASLMILLVILATGFLFESLPQAVLSAIVIVNLKGMFMQFSDLPFFWRTSKIELTIWLTTFVSSLFLGLDYGLITAVIIALLTVIYRTQSPSYKVLGQLPDTDVYIDIDAYEEVKEIPGIKIFQINAPIYYANSDLYSNALKRKTGVNPALIMGARRKAMRKYAKEVGNANIANAAVVKVDGEVDGENATKPEEEDDEVKYPPIVIKTTFPEELQRFMPQTENVHTIILDFTQVNFIDSVGVKTLAVMVKEYGDVGIYVYLAGCSPQVVNDLTRNRFFENPALKELLFHSIHDAVLGSHVREAMAEQEASAPPPQDDMEPNATPTTPEA
notes: prestin (Slc26a5), gerbil (Meriones unguiculatus), GenBank AF230376, full-length cDNA; the model is built to residue A726; also called Slc26a5; prestin-YFP; not shown: EYFP, C-terminal, kept
Consider B1, for which the “stoichiometry N” value came out at 2.

One may read the stoichiometry N as the number of molecules, sites or subunits per partner or assembly.

These data come from PMC8755724, “Single particle cryo-EM structure of the outer hair cell motor protein prestin” (Nature Communications, 2022).
